{
  "source": "patent US20110014669A1",
  "about": "“Production of 1,4 Butanediol in a Microorganism” (Microbia, Inc., priority 2009, published 2011)",
  "data": [
    {"test_system": "5-hydroxy-2-oxopentanoate", "assay": "Enzyme assay, decarboxylase (step A5), aldehyde dehydrogenase linked reaction", "format": "biochemical", "parameters": "key: +: measureable activity detected in the assay; −: no measurable activity detected in the assay", "conditions": "BDO biosynthetic pathway step A5", "procedure": "Enzyme expression and crude lysate preparation. The enzymatic activity of each candidate enzyme is evaluated, first in E. coli and subsequently in C. glutamicum. It will be apparent to one of skill in the art that the expression and lysate preparations may need to be modified depending on the host cell and recombinant gene of interest.\nE. coli: E. coli strains transformed with expression clones, for example, pUC18 or MB4124 based clones having a medium strong constitutive promoter regulating the recombinant gene of interest, are grown aerobically in LB medium (Difco) containing the appropriate antibiotic(s). At an OD600 of 0.5, IPTG is added to a final concentration of 0.25 mM. The cultures are grown to a final OD600 of 1.5 at which time the cells are collected and harvested by centrifugation. Cell pellets are resuspended in BugBuster (Novagen) reagent containing benzonase and lysozyme. Alternatively, E. coli strains transformed with expression clones, are grown overnight aerobically at 37° C. in BHI containing the appropriate antibiotic(s). 300 μL of fresh overnight culture is used to inoculate 2.7 mL BHI containing 0.25 mM IPTG and the appropriate antibiotic. The cultures are grown aerobically for 4-5 hours at 37° C. at which time the cells are collected and harvested by centrifugation. Cell pellets are frozen at −80° C. for at least 15 minutes, then thawed and resuspended in BugBuster (Novagen) reagent. Lysis and lysate collection are performed according to the manufacturer's instructions and, for example, may involve use of a sonicator and/or French press. Cleared lysates are stored on ice until enzyme assays are performed.\nC. glutamicum: C. glutamicum strains transformed with MB4124 expression clones containing the recombinant gene of interest are grown aerobically in BHI broth supplemented with the proper antibiotic(s). At an OD600 of 0.5, IPTG is added to a final concentration of 0.25 mM. The cultures are grown to a final OD600 of 1.5 at which time the cells are collected and harvested by centrifugation. The pellet is washed once in one volume of water and resuspended in lysis buffer (1.0 ml 1.0 M HEPES buffer, pH 7.5, 0.5 ml 1M KOH, 10 μl 0.5M EDTA, protease inhibitor cocktail, water to 5 ml; the final pH will vary depending on the individual enzyme being tested) and one volume of 0.1 mm acid washed glass beads. The mixture is repeatedly alternately vortexed and held on ice for 15 seconds, eight times. After centrifugation for 5 min at 4,000 rpm, the supernatant lysate is removed and respun for 20 min at 10,000 rpm. Alternatively, C. glutamicum strains transformed with MB4124 expression clones containing the recombinant gene of interest are grown aerobically overnight in BHI broth supplemented with the proper antibiotic(s). Five mL of fresh overnight culture is used to inoculate 200 mL BHI containing 0.25 mM IPTG and the appropriate antibiotic. The cultures are grown aerobically at 30° C. for 5-7 hours at which time the cells are collected and harvested by centrifugation at 4° C. The pellet is resuspended in 15 mL ice cold 39 mM KH2PO4, 61 mM K2HPO4, 0.5 M KCl and lysed using a BioSpec BeadBeater and following the manufacturer's instructions. The lysate is centrifuged at 16,000 RPM at 4° C. for 30 minutes and the supernatant retained on ice as the extract.\nProtein Assays. Protein concentrations in lysates are determined according to the methods of Bradford et al. (Anal. Biochem. 72:248-254 [1976]) or by the method of Smith et al. (Anal. Biochem. 150(1):76-85 [1985]) and lysates are assayed according to the methods below.\nEnzyme Assays. Enzyme assays are performed on the cell lysates prepared above. The activity for each recombinant enzyme is compared to a lysate from a vector only control culture which is generated in a fashion identical to the recombinant enzyme lysate. […]", "values": [
      {"molecule": "LdcCEc: Enzyme candidate for BDO biosynthetic pathway step A5, SEQ ID NO. 62 (protein, listed as Escherichia coli) MNIIAIMGPHGVFYKDEPIKELESALVAQGFQIIWPQNSVDLLKFIEHNPRICGVIFDWDEYSLDLCSDINQLNEYLPLYAFINTHSTMDVSVQDMRMALWFFEYALGQAEDIAIRMRQYTDEYLDNITPPFTKALFTYVKERKYTFCTPGHMGGTAYQKSPVGCLFYDFFGGNTLKADVSISVTELGSLLDHTGPHLEAEEYIARTFGAEQSYIVTNGTSTSNKIVGMYAAPSGSTLLIDRNCHKSLAHLLMMNDVVPVWLKPTRNALGILGGIPRREFTRDSIEEKVAATTQAQWPVHAVITNSTYDGLLYNTDWIKQTLDVPSIHFDSAWVPYTHFHPIYQGKSGMSGERVAGKVIFETQSTHKMLAALSQASLIHIKGEYDEEAFNEAFMMHTTTSPSYPIVASVETAAAMLRGNPGKRLINRSVERALHFRKEVQRLREESDGWFFDIWQPPQVDEAECWPVAPGEQWHGFNDADADHMFLDPVKVTILTPGMDEQGNMSEEGIPAALVAKFLDERGIVVEKTGPYNLLFLFSIGIDKTKAMGLLRGLTEFKRSYDLNLRIKNMLPDLYAEDPDFYRNMRIQDLAQGIHKLIRKHDLPGLMLRAFDTLPEMIMTPHQAWQRQIKGEVETIALEQLVGRVSANMILPYPPGVPLLMPGEMLTKESRTVLDFLLMLCSVGQHYPGFETDIHGAKQDEDGVYRVRVLKMAG", "Enzyme Assay": "−"},
      {"molecule": "YeaUEc: Enzyme candidate for BDO biosynthetic pathway step A5, SEQ ID NO. 59 (protein, listed as Escherichia coli) MMKTMRIAAIPGDGIGKEVLPEGIRVLQAAAERWGFALSFEQMEWASCEYYSHHGKMMPDDWHEQLSRFDAIYFGAVGWPDTVPDHISLWGSLLKFRREFDQYVNLRPVRLFPGVPCPLAGKQPGDIDFYVVRENTEGEYSSLGGRVNEGTEHEVVIQESVFTRRGVDRILRYAFELAQSRPRKTLTSATKSNGLAISMPYWDERVEAMAENYPEIRWDKQHIDILCARFVMQPERFDVVVASNLFGDILSDLGPACTGTIGIAPSANLNPERTFPSLFEPVHGSAPDIYGKNIANPIATIWAGAMMLDFLGNGDERFQQAHNGILAAIEEVIAHGPKTPDMKGNATTPQVADAICKIILR", "Enzyme Assay": "−"},
      {"molecule": "PoxBEc: Enzyme candidate for BDO biosynthetic pathway step A5, SEQ ID NO. 60 (protein, listed as Escherichia coli) MKQTVAAYIAKTLESAGVKRIWGVTGDSLNGLSDSLNRMGTIEWMSTRHEEVAAFAAGAEAQLSGELAVCAGSCGPGNLHLINGLFDCHRNHVPVLAIAAHIPSSEIGSGYFQETHPQELFRECSHYCELVSSPEQIPQVLAIAMRKAVLNRGVSVVVLPGDVALKPAPEGATMHWYHAPQPVVTPEEEELRKLAQLLRYSSNIALMCGSGCAGAHKELVEFAGKIKAPIVHALRGKEHVEYDNPYDVGMTGLIGFSSGFHTMMNADTLVLLGTQFPYRAFYPTDAKIIQIDINPASIGAHSKVDMALVGDIKSTLRALLPLVEEKADRKFLDKALEDYRDARKGLDDLAKPSEKAIHPQYLAQQISHFAADDAIFTCDVGTPTVWAARYLKMNGKRRLLGSFNHGSMANAMPQALGAQATEPERQVVAMCGDGGFSMLMGDFLSVVQMKLPVKIVVFNNSVLGFVAMEMKAGGYLTDGTELHDTNFARIAEACGITGIRVEKASEVDEALQRAFSIDGPVLVDVVVAKEELAIPPQIKLEQAKGFSLYMLRAIISGRGDEVIELAKTNWLR", "Enzyme Assay": "−"},
      {"molecule": "SpeFEc: Enzyme candidate for BDO biosynthetic pathway step A5, SEQ ID NO. 63 (protein, listed as Escherichia coli) MSKLKIAVSDSCPDCFTTQRECIYINESRNIDVAAIVLSLNDVTCGKLDEIDATGYGIPVFIATENQERVPAEYLPRISGVFENCESRREFYGRQLETAASHYETQLRPPFFRALVDYVNQGNSAFDCPGHQGGEFFRRHPAGNQFVEYFGEALFRADLCNADVAMGDLLIHEGAPCIAQQHAAKVFNADKTYFVLNGTSSSNKVVLNALLTPGDLVLFDRNNHKSNHHGALLQAGATPVYLETARNPYGFIGGIDAHCFEESYLRELIAEVAPQRAKEARPFRLAVIQLGTYDGTIYNARQVVDKIGHLCDYILFDSAWVGYEQFIPMMADCSPLLLDLNENDPGILVTQSVHKQQAGFSQTSQIHKKDSHIKGQQRYVPHKRMNNAFMMHASTSPFYPLFAALNINAKMHEGVSGRNMWMDCVVNGINARKLILDNCQHIRPFVPELVDGKPWQSYETAQIAVDLRFFQFVPGEHWHSFEGYAENQYFVDPCKLLLTTPGIDARNGEYEAFGVPATILANFLRENGVVPEKCDLNSILFLLTPAEDMAKLQQLVALLVRFEKLLESDAPLAEVLPSIYKQHEERYAGYTLRQLCQEMHDLYARHNVKQLQKEMFRKEHFPRVSMNPQEANYAYLRGEVELVRLPDAEGRIAAEGALPYPPGVLCVVPGEIWGGAVLRYFSALEEGINLLPGFAPELQGVYIEEHDGRKQVWCYVIKPRDAQSTLLKGEKL", "Enzyme Assay": "−"},
      {"molecule": "MenDEc: Enzyme candidate for BDO biosynthetic pathway step A5, SEQ ID NO. 65 (protein, listed as Escherichia coli) MSVSAFNRRWAAVILEALTRHGVRHICIAPGSRSTPLTLAAAENSAFIHHTHFDERGLGHLALGLAKVSKQPVAVIVTSGTAVANLYPALIEAGLTGEKLILLTADRPPELIDCGANQAIRQPGMFASHPTHSISLPRPTQDIPARWLVSTIDHALGTLHAGGVHINCPFAEPLYGEMDDTGLSWQQRLGDWWQDDKPWLREAPRLESEKQRDWFFWRQKRGVVVAGRMSAEEGKKVALWAQTLGWPLIGDVLSQTGQPLPCADLWLGNAKATSELQQAQIVVQLGSSLTGKRLLQWQASCEPEEYWIVDDIEGRLDPAHHRGRRLIANIADWLELHPAEKRQPWCVEIPRLAEQAMQAVIARRDAFGEAQLAHRICDYLPEQGQLFVGNSLVVRLIDALSQLPAGYPVYSNRGASGIDGLLSTAAGVQRASGKPTLAIVGDLSALYDLNALALLRQVSAPLVLIVVNNNGGQIFSLLPTPQSERERFYLMPQNVHFEHAAAMFELKYHRPQNWQELETAFADAWRTPTTTVIEMVVNDTDGAQTLQQLLAQVSHL", "Enzyme Assay": "−"},
      {"molecule": "PanDEc: Enzyme candidate for BDO biosynthetic pathway step A5, SEQ ID NO. 61 (protein, listed as Escherichia coli) MIRTMLQGKLHRVKVTHADLHYEGSCAIDQDFLDAAGILENEAIDIWNVTNGKRFSTYAIAAERGSRIISVNGAAAHCASVGDIVIIASFVTMPDEEARTWRPNVAYFEGDNEMKRTAKAIPVQVA", "Enzyme Assay": "−"},
      {"molecule": "GadBEc: Enzyme candidate for BDO biosynthetic pathway step A5, SEQ ID NO. 64 (protein, listed as Escherichia coli) MDKKQVTDLRSELLDSRFGAKSISTIAESKRFPLHEMRDDVAFQIINDELYLDGNARQNLATFCQTWDDENVHKLMDLSINKNWIDKEEYPQSAAIDLRCVNMVADLWHAPAPKNGQAVGTNTIGSSEACMLGGMAMKWRWRKRMEAAGKPTDKPNLVCGPVQICWHKFARYWDVELREIPMRPGQLFMDPKRMIEACDENTIGVVPTFGVTYTGNYEFPQPLHDALDKFQADTGIDIDMHIDAASGGFLAPFVAPDIVWDFRLPRVKSISASGHKFGLAPLGCGWVIWRDEEALPQELVFNVDYLGGQIGTFAINFSRPAGQVIAQYYEFLRLGREGYTKVQNASYQVAAYLADEIAKLGPYEFICTGRPDEGIPAVCFKLKDGEDPGYTLYDLSERLRLRGWQVPAFTLGGEATDIVVMRIMCRRGFEMDFAELLLEDYKASLKYLSDHPKLQGIAQQNSFKHT", "Enzyme Assay": "−"}
    ]}
  ]
}
